The record followed here is patent US20130052670A1 (MERCK, published 2013).

The target in assay [1] is T1, Aβ oligomers (ADDLs, amyloid-β derived diffusible ligands) prepared from Aβ42 (UniProt P05067 672-713).
T1 construct: domain: amyloid β peptide 1-42; Heterogeneous mixture of multimers; number of chains not defined; Concentrations are calculated on the Aβ monomer molecular weight (MW 4513); also called ADDL species of Aβ oligomers; Aβ oligomer standards
Briefly: one-sided ELISA on coated plates. On the procedure: (§1) Next day, plates were washed five times with PBS+0.05% Tween-20 and blocked overnight with Casein blocking buffer (Thermo Scientific, Waltham, Mass.) and 0.05% Tween-20. […] After two hours at room temperature incubation, the plates were washed and alkaline phosphatase conjugated anti-human IgG (ThermoScientific, Waltham, Mass.) was added at 0.08 μg/ml. After incubation for 45 minutes at room temperature, the plates were washed and Tropix CDP star (Applied Biosystems, Foster City, Calif.) was added. Luminescence was detected after 30 minutes on an EnVision® plate reader (PerkinElmer, Waltham, Mass.). Curve fits were completed using GraphPad Prism (GraphPad Software, Inc., San Diego, Calif.) software.
(In general: In an ELISA, binding on a coated surface is turned into a signal by an enzyme label.)

Assay [2] addresses T1, Aβ oligomers (ADDLs, amyloid-β derived …). Briefly: one-sided ELISA, plate coated with Aβ oligomers (50 pmol/well), 19.3 titrated, anti-human IgG-AP, luminescence. On the procedure:
as §1

Assay [3] has as its target T2, Aβ40 monomer (amyloid β peptide 1-40) (UniProt P05067 672-711).
T2 construct: domain: amyloid β peptide 1-40; also called monomeric Aβ40; Aβ monomer
As to the kind of experiment: one-sided ELISA, plate coated with Aβ40 monomer (100 pmol/well), 19.3 titrated, anti-human IgG-AP, luminescence. On the procedure:
as §1

T1 sequence (P05067 672-713 limits assumed): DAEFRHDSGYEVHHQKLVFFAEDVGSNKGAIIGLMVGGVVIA
T2 sequence (P05067 672-711 limits assumed): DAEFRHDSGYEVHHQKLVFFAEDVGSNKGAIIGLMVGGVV

B1: anti-Aβ oligomer antibody 19.3 (antibody, V domains shown)
VH: EVQLVESGGGLVQPGGSLRLSCAASGFTFSSFGMHWVRQAPGKGLEWVAYISRGSSTIYYADTVKGRFTISRDNAKNSLYLQMNSLRAEDTAVYYCARGITTALDYWGQGTLVTVSS
VL: DVVMTQSPLSLPVTPGEPASISCRSSQSIVHSNGNTYLEWYLQKPGQSPQLLIYKASNRFSGVPDRFSGSGSGTDFTLKISRVEAEDVGVYYCFQGSRLGPSFGQGTKLEIK
notes: In the sandwich assays it was coated on plates or covalently coupled to paramagnetic micro-particle beads; not shown: human immunoglobulin kappa light chain constant region
In the case of B1, the “fold greater potency than for Aβ40 monomer” value in assay [1] was around 3.7 fold. For the same molecule, the EC50 came out at 1.6 nM in assay [2] and 4.3 nM in assay [3].

The term EC50 denotes the concentration giving half of the maximal effect. The low end stands for an effect from little substance, the high end for a need for much substance.
